From publication PMC6703867 (Science Advances, 2019)

Target: T1, MBP-AtWRKY20 fusion protein (Arabidopsis thaliana, UniProt Q93WV0 1-557)
T1 sequence (looked up): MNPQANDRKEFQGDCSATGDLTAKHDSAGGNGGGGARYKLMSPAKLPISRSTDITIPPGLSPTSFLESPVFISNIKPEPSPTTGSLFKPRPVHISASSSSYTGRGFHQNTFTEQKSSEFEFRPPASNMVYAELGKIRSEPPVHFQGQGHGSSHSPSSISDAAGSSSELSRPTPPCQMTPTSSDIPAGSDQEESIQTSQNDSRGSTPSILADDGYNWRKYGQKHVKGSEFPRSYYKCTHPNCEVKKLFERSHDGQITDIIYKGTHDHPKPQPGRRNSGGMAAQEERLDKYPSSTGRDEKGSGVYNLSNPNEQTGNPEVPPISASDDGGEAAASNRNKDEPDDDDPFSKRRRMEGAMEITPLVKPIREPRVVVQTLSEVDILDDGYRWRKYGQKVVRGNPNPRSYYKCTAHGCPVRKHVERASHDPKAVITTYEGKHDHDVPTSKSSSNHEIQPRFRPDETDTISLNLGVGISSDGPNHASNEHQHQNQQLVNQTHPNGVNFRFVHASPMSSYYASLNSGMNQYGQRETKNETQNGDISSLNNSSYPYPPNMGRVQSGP
Assay: pull-down

B1: GST-AtORA59 (natural protein)
chain: not shown
- binding result: binds
